Data set [1] concerns the target T1, LASV L protein (WT) (Lassa virus Bantou 289, UniProt A0A3S8NV63 1-2217). Nature of the data set: cryo-EM; PRE-[…]ON, 3.34 A. As to conditions: protein: recombinant; tags: internal StrepII after residue 407, or C-terminal StrepII-His.
Data set [2] concerns the target T1, LASV L protein (WT). The experiment in a line: EMSA. The conditions noted are these: protein: recombinant; tags: internal StrepII after residue 407, or C-terminal StrepII-His; label: 5' Cyanine3; single strand. In general terms: In EMSA bound probe runs differently from free probe, usually more slowly.

B1: full promoter: 5' vRNA 0-19 / 3' vRNA 1-19 (structured_RNA)
RNA 1: GCGCACCGGGGAUCCUAGGC
RNA 2: GCCUAGGAUCCACUGUGCG
For the molecule B1, the binding result in the data set with LASV L protein (WT) [1] is listed as “binds”.

B2: 3' vRNA 1-10 nt (ssRNA)
RNA: CCACUGUGCG
As to B2, the binding result with LASV L protein (WT) [2] is “binds”.

Source of the values: paper PMC8639829.
